System: Saccharomyces cerevisiae
Assay: transcriptional activation domain activity (GFP:mCherry ratio, weighted mean of sorted bins, harmonized to initial dataset scale) (arbitrary fluorescence ratio units); higher = stronger transcriptional activation
Conditions: beta-estradiol 1 µM; induction time 4 h
Experimental: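 53-aa protein tiles (fungal proteins plus yeast TF control tiles) fused C-terminally to a DBD-estrogen-binding domain-mCherry synthetic TF, integrated in S. cerevisiae (URA3 locus) with a GFP reporter. Cells were induced with 1 uM beta-estradiol for 4 h at 30 C, FACS-sorted into 8 bins by GFP:mCherry ratio and barcodes sequenced. Activity is the read-weighted mean bin fluorescence (GFP:mCherry), averaged over barcodes (median 12); tiles under 50 reads were discarded. New active-learning values were harmonized by linear fit onto the scale of the initial (Hummel et al.) dataset. The assay saturates at low and high signal.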

Compared with “SSGGGSTSESESESESEIEEDESKGEREGEGEKEKKKKKKKKGEEKAQHARRD”, “GEIAQLWDFNVDQFNMTPSNSSGSATISAPNSFTSDIPQYNHGSLGNSVSKSS” is higher in “transcriptional activation domain activity” value: 31700 for the first, 48300 for the second.

Compared with “GPEYEPGRPSEQEVSLTRMLDKVLRRSDAIDKESLCIIAGQRVWHIRLTIHCL”, “NQLHRPPPEILKLFEASVRFEMQIRRLIAKDWLCVATWWLLKARATLANCNRH” is lower in “transcriptional activation domain activity” value: 87900 for the first, 69100 for the second.

Going from “MFKGSFFFSLTGFLFSLLFLFFYPLPCWGRDHFFCWGLECLFSLFLSWVLFTV” to “CRLYRLGFFVFLLVLSGLSFLSFYQVYRLFYFLLLFLFFSLFVFFSFCLILYF”, the “transcriptional activation domain activity” value rises from 41100 to 57400.

First: EGEDALTLPLIISSQALLVVPPEKIVALPLQQMLSLVVRAITQAFVHGAFISR
Second: KAQDDKEADDSPKKKPAKRSRKKAAADDGDDDEEEAQPAKKKAKGGRKSKAAA
The “transcriptional activation domain activity” value of the first is higher: 67100 for the first, 39400 for the second.

Compared with “ILQNDLKFDQILESSYNNSNHTVSKFKVSHYVEESGLLDILMQRYGLTAEDFE”, “DRPRDRDSSRSRRDVSSSRRDRDGEDKESAGDRRDDRKPARDDRRTREDHRRE” is lower in “transcriptional activation domain activity” value: 57600 for the first, 28100 for the second.

Going from “PEKLFGLMHAAISNFPEWETKVGSWFLLGIWHPRFFKAAKEILPYCRRSCISF” to “MEQSMGFMIHVYITVIPLGDVYEVLVFLILRSILPLPPGFLCLSLLLHDLFFI”, the “transcriptional activation domain activity” value falls from 64500 to 62400.

First: LINYLLVLLVFRKWLKGHQVPLFVIMSYAWTRQLSFMDNVRRTNKRATLAMLR
Second: RLIYGDYVSYHFLKMLHKVHDQISLAYIHHGLELVMWSCKVLVLLFKQLFESY
The “transcriptional activation domain activity” value of the first is lower: 57200 for the first, 67900 for the second.

Compared with “MPPPRKPHRKSRYGCIQCKRRHVKCDEEKPCRRCLDREEQCSLKPDVAAADIT”, “RHLGSLAYLGNTAVGEFGWGYKMIGGLYAQYLWRSVYWSKQVSLRTRINLSID” is higher in “transcriptional activation domain activity” value: 17600 for the first, 54500 for the second.

Compared with “LVAFGMRFGGPTLLKLYFLPWMACHLIFALVPVIITLPMQWANHWIVALTYLH”, “AEDSDASMDDAPAPKEAAKKAAPVEAGSDSESDSEAEKKKKKAAKKSKKEVVP” is lower in “transcriptional activation domain activity” value: 57900 for the first, 22600 for the second.

First: AAQAPANDGFSEVQHNRGGRGRGGQDQGEGRGGYRGRGRGGRGGGEFRGRGRG
Second: MMLVGVVAFNVLKVIPVSDPRCIGVLLVGYVFQGLGFFMTFFYLAIYILRIMT
The “transcriptional activation domain activity” value of the first is higher: 55800 for the first, 43600 for the second.

Going from “SEEETSRSRSSKKHAISSGSDSDRDSRKVRKSRHSSSDEERYQKSHKSSSRRR” to “NNTNNASPATSTVSLQLPNLPDQNSLTPNAQNNTVTLRKGFHVLLVEDDAVSI”, the “transcriptional activation domain activity” value falls from 52400 to 23700.

Compared with “MGMEHLAQPDQPNKKKRRRQALSCTECKRRKIKCDRKQPCSPCTRRGEQAKCQ”, “APRARPAPAQRVGPRARAAEQLHRADGQHRERARRQHGRRHPPAAGAAPAVRL” is higher in “transcriptional activation domain activity” value: 29900 for the first, 52800 for the second.

Going from “QQQQQQQQQQQQQQQQQSLDTLLHHYQSLLSKSDNAIAFDDNVSNSADHNGSN” to “CNVLCYGYNVVLLVMKLYVKRVFVSPRGVRQPLVLAPYEHTLYIRFSCQPITD”, the “transcriptional activation domain activity” value rises from 22600 to 29300.

Compared with “VEQYLHLLPPHSLQEIRWRWRMTKVSRPIPEKMKLVRLNLKAVKHIHLFMKSA”, “ISSISSIFPIFFPYFPSIYLIFFFIFFLPFFPSLPILLFLLFLLFLLFTLPLC” is higher in “transcriptional activation domain activity” value: 31500 for the first, 43700 for the second.

Compared with “LYAWLSFFWVLVYVYFFSITVYLVVKGSRSILDLSHGSPSPLLTGSLFACLVW”, “WLAHSKKKTCDVCKHPYSFTKVYATDMPTRLPPVLLLRRVAQQSFFAMLFAVR” is lower in “transcriptional activation domain activity” value: 58700 for the first, 48100 for the second.

Compared with “MYFAYFYLLPEMSSLSFFPFLSVYVFFIFFSSLICFFFFLSMGFLCLFTFLLV”, “EVSFVALLLVWTYMRHYLNCKILYSVWTEFDLIPHHFRSWVHEPGYPHDIRGW” is lower in “transcriptional activation domain activity” value: 45200 for the first, 45000 for the second.

Compared with “LCNVLRLYFYLLYFIFYRNLFARLRDVEQFAMIQIASSVWVTILYPMRMTRPV”, “IILRIVGAPNWIQFWSLGRNQVDLLLVISTCVIQLPMIQNLDIYKYLTIFQVF” is higher in “transcriptional activation domain activity” value: 72900 for the first, 81300 for the second.

Compared with “LPVYQLSVSPWKSKEAMDAWCMAKIESLLLDFKFLNAWVQLLVANNLQQIHIP”, “LFTSLLTSPFLFSLPLLSISASSFLIPPSPFHSLFLPLSLPFPLLYPFPSLFF” is lower in “transcriptional activation domain activity” value: 63900 for the first, 49800 for the second.

Compared with “MIFSLFLSYNPLFYFIYYYLFYFSCFLLLILIAIITIIAILLCILEFHVPKSL”, “ILLVALPLFSFGFESFLPFGKDSGILYYFWLYSTRVFCPCMGFLWAIFALLPF” is higher in “transcriptional activation domain activity” value: 51600 for the first, 59700 for the second.

First: MCKKGKGVAIGPLSLSWFFNLSLVIFSLLSSLQSLWFLPWPLNFVLMVPVHFV
Second: STALRTWPGLMYLSMYNFRAIKSLVASLMLPNQQARDIIIVLLYSLLRIKSPA
The “transcriptional activation domain activity” value of the first is higher: 79900 for the first, 65100 for the second.

Going from “LPLYNFVRQHLCVFLDRYEHMLTRFLTLGNIMVVSSAVRRGAYWHLLETCQHT” to “MIKKISFFLYIFALRSSFFLFLFVLYFFFPLFFFFFFSFSFFFLLLVSVATLE”, the “transcriptional activation domain activity” value falls from 50200 to 12200.

Going from “MPHTHLIFESCFFIVFSPNDLLTTDYLFFLPFPFPFPFPFLFPFPFLFPFLFL” to “RDNSFLHALIHRFHEVHIVAWCIEKVNFMYLHPGVPFYVLCDCTRGPAIMVLH”, the “transcriptional activation domain activity” value falls from 63100 to 51300.

Compared with “VFFFLVIALYPFFSSLFTRHGFYTFSPFNCQLSWLFFQWGHSILLFLLRLVSY”, “MLMFLRCGLGLRFGVLVCGCRSTFVCWSLQRAFANMLRARSLPWIFLAWVILL” is higher in “transcriptional activation domain activity” value: 46600 for the first, 76000 for the second.

Compared with “KEKEDYALAIKLYADSIIITLRRLFKELDYIEIKSLIISSMFKVLLYNLLIYK”, “MSSDDDSAPRTKRGGKPTTKKQQKRAIARACDRCRQKKVKCDGASLAIGAVCQ” is lower in “transcriptional activation domain activity” value: 66200 for the first, 40600 for the second.

First: IQAYLVNFLSSACLMNFWVTLTFLLGGEPYHYSTYVLLVGWMFIYLILLFGLI
Second: MKLMLSLYLLRMIFSLLVFFLLSGNVVATLFGFSMCFLIRFGWCCVLSYVLSF
The “transcriptional activation domain activity” value of the first is lower: 37700 for the first, 68500 for the second.

First: MYYIVIYAFLYGIKYTHWIYFLSNNLVFWFLLLHFRHSHYGSLSYRYIIDHLL
Second: RSSRRDRDEDENERHSRHRRENRRRSHSSDERHGDARRRDEKSRHHRSSRHER
The “transcriptional activation domain activity” value of the first is higher: 62500 for the first, 17900 for the second.

Compared with “GHVRSHNDERPFACGWAGCERAFARQHDCRRHEQRHARDLEREREREFACAGC”, “RREERRGEDGHRHRRTRRYSEDEDEEGERRSRGKERGGEERREKRREERRDAG” is lower in “transcriptional activation domain activity” value: 38100 for the first, 16800 for the second.

First: WWLLGDSYESEIISLVILFQFWNNGALVNFGSAFRQAWWRNYLLVFVWSCFFI
Second: MFSYFVFLLTIVTFFHLIISFCFVFRCHYIVLLLLLQNVFIFCLFAHHCYIHV
The “transcriptional activation domain activity” value of the first is lower: 17800 for the first, 31400 for the second.

Compared with “EKEESDEDESEKGSAAGGRGKAALKTWVKRVRLIRDKGTLLGKGFGYVQFNDR”, “GILPPLLLAIVFGVLPFILRGLAWYECVPRYSLMSISVYRRFYLFLLIHGFLI” is lower in “transcriptional activation domain activity” value: 69000 for the first, 51900 for the second.

Going from “PSPPKCQVPTLYAVIFRILAYLRLLDAFLFHVYILLTLHELWLIIWIPHHHQS” to “SNHGLIYSKPLAWEWNCIIDSIENSLVGYCMEQIFVVHVSRLLLLQWSITQIF”, the “transcriptional activation domain activity” value rises from 41400 to 56000.

Compared with “MIWRYVWYTLVLGCLFCCRPNYSLLVPNTIDLHRLWLGFRFQILFVAWGVYLV”, “MLLGCRKRYSAHPFNDFLSFFIFYSSLFFYSLLSPFPFPPHSTPVTSFFILFY” is lower in “transcriptional activation domain activity” value: 58900 for the first, 53700 for the second.

Compared with “FWPWTFWPWIFWTFGLFGLGLFGLGLFGFFGLFGPLDFLDFLDFLALDFLDFL”, “SLPPPRFSPMFSFSLMSYLRCFDYYVCFFFSLFCFFSPALLVEGVVTFFSFIH” is higher in “transcriptional activation domain activity” value: 37000 for the first, 60100 for the second.

Compared with “CSNIGAQKNQCEFVQLNCHGFNALYLELFYCSKLWKPIIIAILLSCLLMLFGA”, “RGTIRPGFLIYFFILFLWVFQIHCIMQIIVNRIALLHVSPTIVRRLKWGIFAI” is higher in “transcriptional activation domain activity” value: 42200 for the first, 71800 for the second.

Going from “HSQYMGYFGGYLVCHLWFTHRFVGMLRLGVVDVVWRFCVYLGLVGWSLGVCYS” to “STQCSCEDESCPCVNCLIHRSEEELNSYIQQSGVPLTNIGEAQITDKMMDYLD”, the “transcriptional activation domain activity” value falls from 72500 to 56900.

First: SKARSRGQSSRTRKRGRQESSGESSSSEEEDSYRGRQGRSKAGKKGKDKGKGK
Second: RLSASKIYIWCSGGVVFAIVLALQVLVLLALLNVITCLEGHMLSIHGWPRGEC
The “transcriptional activation domain activity” value of the first is lower: 27200 for the first, 31100 for the second.

First: KKKKRKKKTPSKGESEEKGDDEDDEDEKKQTPKANTGAKKTKATGKTDREKKE
Second: TATVQYSERRRGTVTAFNDEKGYGFAADSDPASLGNKEVLVHHKKIKSTARHK
The “transcriptional activation domain activity” value of the first is higher: 51500 for the first, 24200 for the second.

First: FEAKHADLIGSQKALYFQSTENIKNLLSMFTSYFSPIVDLLGHLHRVLTQVYH
Second: DRHLDHGQLVYLLHSIVTCPRFQPMVRAIIVSRELPFFVQTWPWPYLSLLART
The “transcriptional activation domain activity” value of the first is higher: 46600 for the first, 36100 for the second.

Compared with “VLGCAKIGVVLLSLWHMFHFAHYINVSPTEIFCISPVLGSWSWETLCFMMTVV”, “EEEAPEDNSGPRQGAKPAKRAHARARAPKCSGPTNAKVNGKGRARRSGRPAKK” is lower in “transcriptional activation domain activity” value: 49600 for the first, 24900 for the second.

First: VYRRELDQNKGGLILIVRRTGNEVHCGVYITFGFMKQWKLYVKSLISITGQWH
Second: FPYFPYFPYFPYFLYFLFSLFSLLSLLPLLLYFLHPFLFLTCFWFSKLACFLS
The “transcriptional activation domain activity” value of the first is higher: 58500 for the first, 51400 for the second.

In the case of “MRVCVTSLFFFPLSFFPILIKLFLLSHHLFPTSNPFSFVFSSFAPFLPAFSFI”, the “transcriptional activation domain activity” value is reported as 40900.

From the supplement of paper PMC12636428
